Tests used:
[1] = molecular target: extracellular region of human V158 FcγRIIIa with C-terminal 6x His-tag and GST-tag (human) (UniProt P08637); test: SPR, His-tagged receptor immobilized, antibody flowed
[2] = molecular target: extracellular region of human F158 FcγRIIIa with C-terminal 6x His-tag and GST-tag (human) (UniProt P08637); test: SPR, receptor immobilized, antibody flowed
[3] = molecular target: extracellular region of human V158 FcγRIIIa with C-terminal 6x His-tag and GST-tag (human) (UniProt P08637); test: SPR
[4] = molecular target: FcγRIIIa on human PBMCs expressing heterozygous V158/F158 FcγRIIIa (human) (UniProt P08637); test: cell-based or functional assay

Sequence of extracellular region of human V158 FcγRIIIa with C-terminal 6x His-tag and GST-tag (human) (P08637 17-208 F176V, chain 1 of 2): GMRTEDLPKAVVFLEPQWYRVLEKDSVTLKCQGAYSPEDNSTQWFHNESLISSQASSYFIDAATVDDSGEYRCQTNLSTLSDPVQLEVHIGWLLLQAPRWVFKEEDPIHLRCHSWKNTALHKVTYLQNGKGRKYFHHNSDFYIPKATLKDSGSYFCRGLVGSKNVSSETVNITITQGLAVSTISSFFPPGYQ
Sequence of extracellular region of human V158 FcγRIIIa with C-terminal 6x His-tag and GST-tag (human) (P08515 whole entry, chain 2 of 2, further chain): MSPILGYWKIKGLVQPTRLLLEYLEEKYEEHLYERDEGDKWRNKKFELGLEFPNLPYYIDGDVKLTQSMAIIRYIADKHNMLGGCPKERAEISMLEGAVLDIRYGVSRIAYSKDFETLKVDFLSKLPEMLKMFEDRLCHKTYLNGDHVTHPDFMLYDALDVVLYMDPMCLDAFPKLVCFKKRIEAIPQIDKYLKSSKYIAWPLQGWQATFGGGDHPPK
Sequence of extracellular region of human F158 FcγRIIIa with C-terminal 6x His-tag and GST-tag (human) (P08637 17-208, chain 1 of 2): as the sequence (P08637 17-208 F176V, chain 1 of 2) above, with V160F counted along it
Sequence of extracellular region of human F158 FcγRIIIa with C-terminal 6x His-tag and GST-tag (human) (P08515 whole entry, chain 2 of 2, further chain): as the sequence (P08515 whole entry, chain 2 of 2, further chain) above

Kd [1] [nM]	Kd [2] [nM]	Fold WT V158 FcγRIIIa [3] [fold]	Substance	other results
64	550	–	V264I alemtuzumab (antibody)	–
–	–	12.8	S304T alemtuzumab (antibody)	–
17	52	–	V264I/I332E alemtuzumab (antibody)	ADCC, DoHH-2 target cells: EC50 [4]: 4 ng/mL; ADCC, DoHH-2 target cells: log (EC50) [4]: 0.6 log (ng/ml)
–	–	–	S239D/I332E alemtuzumab (antibody)	ADCC, DoHH-2 target cells: EC50 [4]: 3 ng/mL; ADCC, DoHH-2 target cells: Fold WT [4]: 3.3 fold; ADCC, DoHH-2 target cells: log (EC50) [4]: 0.49 log (ng/ml)
31	72	–	I332E alemtuzumab (antibody)	–
52	285	–	S298A alemtuzumab (antibody)	–
–	–	1.38	E272R alemtuzumab (antibody)	–
39	156	–	S298A/E333A/K334A alemtuzumab (antibody)	–
–	–	1.51	V284E alemtuzumab (antibody)	–
–	–	2.31	E283H alemtuzumab (antibody)	–

Reference: patent US20070231329A1
